# Data taken from the Human Domainome abundance scans (Beltran et al. 2025).
# ± gives the uncertainty stated by the source.
# B1: Cell division cycle and apoptosis regulator protein 1, residues 625 to 674; numbered along this chain, Q8IX12 (parent)
# chain: ISTPTHWSKLDPKTMKVNDLRKELESRALSSKGLKSQLIARLTKQLKVEE
# Variants of: B1
# Assay: abundance fitness (aPCA) (normalised: wild type 0, dead -1); higher = more abundant; growth selection in yeast, the domain comes from the species named
# Conditions: Homo sapiens
row,Variant,abundance fitness
1,S30A,-0.05 ± 0.045
2,E23G,-0.904 ± 0.061
3,R41T,-0.237 ± 0.051
4,L24R,-0.87 ± 0.052
5,L10Y,-0.709 ± 0.052
6,G33Y,-1.03 ± 0.17
7,H6E,0.062 ± 0.048
8,I1T,-0.145 ± 0.064
9,T14S,-0.005 ± 0.046
10,M15G,-0.94 ± 0.046
11,D19S,0.038 ± 0.026
12,H6F,-0.037 ± 0.035
13,P12L,-0.189 ± 0.041
14,Q37K,-0.108 ± 0.037
15,Q45F,-0.237 ± 0.052
16,E23W,-0.661 ± 0.054
17,W7M,-0.122 ± 0.037
18,L42T,-0.585 ± 0.053
19,S31H,0.031 ± 0.059
20,A40T,-0.108 ± 0.048
21,D19N,0.063 ± 0.032

row,Variant,abundance fitness
1,N18G,0.019 ± 0.032
2,H6M,-0.036 ± 0.046
3,T5R,-0.103 ± 0.039
4,A40G,0.03 ± 0.032
5,Q45E,-0.118 ± 0.034
6,Q45R,0.01 ± 0.041
7,E25P,-1.02 ± 0.12
8,G33I,-1.04 ± 0.25
9,P12A,-0.142 ± 0.05
10,Q37W,-0.459 ± 0.054
11,M15Y,-0.926 ± 0.096
12,R27H,-0.765 ± 0.11
13,E49W,-1 ± 0.11
14,K9S,-0.166 ± 0.039
15,S31E,-0.106 ± 0.044
16,E23H,-0.48 ± 0.067
17,S2T,0.079 ± 0.053
18,R21W,-0.53 ± 0.055
19,L29D,-0.732 ± 0.1
20,G33C,-1 ± 0.073
21,K9C,-0.243 ± 0.064

row,Variant,abundance fitness
1,W7F,-0.022 ± 0.063
2,E23S,-0.617 ± 0.048
3,T14R,0.178 ± 0.034
4,L10K,-0.538 ± 0.061
5,S26Q,0.001 ± 0.061
6,E25I,-0.274 ± 0.066
7,Q37G,-0.253 ± 0.038
8,D11G,-0.335 ± 0.032
9,E23F,-0.737 ± 0.076
10,V48L,-0.06 ± 0.045
11,R21G,-0.603 ± 0.04
12,G33V,-0.919 ± 0.055
13,K13Q,-0.13 ± 0.032
14,D11T,0.218 ± 0.054
15,P12T,-0.207 ± 0.04
16,T5I,-0.332 ± 0.069
17,L46V,-0.258 ± 0.035
18,T3P,-0.162 ± 0.055
19,W7I,-0.258 ± 0.051
20,N18D,-0.038 ± 0.033
21,K22W,-0.209 ± 0.036

row,Variant,abundance fitness
1,K9A,-0.016 ± 0.036
2,L24H,-0.742 ± 0.15
3,L46H,-0.827 ± 0.17
4,E23P,-0.805 ± 0.1
5,K13A,-0.094 ± 0.034
6,R21L,-0.215 ± 0.039
7,D11A,0.043 ± 0.037
8,L29E,-0.46 ± 0.046
9,T43M,-0.094 ± 0.039
10,L34Q,-0.015 ± 0.037
11,L34Y,-0.033 ± 0.063
12,S2K,0.096 ± 0.037
13,S26T,0.106 ± 0.047
14,N18S,0.081 ± 0.028
15,I39C,-0.059 ± 0.062
16,K44W,-0.338 ± 0.057
17,L46F,-0.471 ± 0.076
18,K32A,-0.153 ± 0.043
19,L24Q,-0.891 ± 0.071
20,L34S,-0.016 ± 0.037
21,R27D,-0.747 ± 0.06
